# Reference: publication doi:10.1101/2020.04.21.053124
# Biological target: MVI Spring bZip (1-914) (UniProt Q9UM54)
# Assay: SEC
substance,measurement,value
MVI Spring bZip (1-914) (from UniProt Q9UM54 1-914),stoichiometry N,2
